Reference: the domain aggregation screens of Martell et al. (2025)

Test: soluble fraction after stress (log2 fold change); higher = more stays soluble; pooled small domains, quantitative proteomics
Settings: stress: 50 degC
How it was run: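 Custom libraries of small protein domains were pooled and measured in a high-throughput format, with quantitative proteomics as the read-out. Each library was stressed at 50°C. The value is the log2 fold change in the amount of each protein that stays soluble after stress, used as a measure of aggregation propensity; higher values mean more of the protein stays soluble.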

| Sequence | soluble fraction (log2) |
| --- | --- |
| HMIVMPELRGKDLKEAERLLSSHNLRYELVDSVYDKSLAPGVVVEMVPQSGNTVKPGRIIFLSINA | -0.878 |
| HMIVNTTRAPYLLGETEQDAMRLARQAGLVPEIVRQSSAEPAGTVILQSHDFDYRMRRGSVILITVSTGPL | -2.15 |
| HMIVPPAIPFRALGIFGPRDRPIVTFEDGPRLINAREGDVLDGRFILRRVGRESVDFAFVGLPPEITRRIP | -0.466 |
| HMIVSEYIIIGGDKKEYGPVSMGEVGEWVQGGRANGDSKIKKVGTEEWGRLRDFPEFSAYLS | -0.00369 |
| HMIVVMARETSTDDLEAIRERIESRGMVAQINLGVERTVIGVMGSIPPDFKDEMELMNGVVEVVMISK | -0.408 |
| HMIVVMKTSASERDLQEVIARIEQFGFATRSIVGSERATVSVLGAPLPDSLQEALERMPGVEEVVRITK | -0.344 |
| HMIYAEDFVGRQGTANTILRPSGRIEIEGEVYDAYTRGEYVEAGERVVVISQEGSTLKVRVV | -0.683 |
| HMIYQEGMQVKYQGKEYVISEIQDYKTYKTIKLDDNEGYLNGFITGSEILSFRNESELDLEI | -0.314 |
| HMIYSKSDLELFGIKKIDVMEENILMLILSEYELDQTPKNILIDEAVRLSKKFGADNAYKFVNATLDTLL | -0.944 |
| HMKAETILAIPENQPERLFPNNEDEARKIYRDLAREWHTDRNKSPKAQDVFSHLSKLYDIVIDRIKNKTWT | 0.152 |
| HMKAGRNTLARQMAILEVLQKDGRALVDDLAARFETTPQTIRKDLSALAEVNQISRFHGGAALVG | -0.0796 |
| HMKAKTYTVQYIDEGKIIKEEELEEGSIINAPEVTKEGHTFIGWYEGEEKYDVYEPITRNLILESKNEIN | -0.137 |
| HMKALEGMRTVFTLADLATEPVTVEITVLEAFKYTTTLEIVQRPVLREWMTNPSMLIRVYHDASTAE | 0.144 |
| HMKAMIIVMKPGADMATISKVLKTIETNGFKPHLSKGEETTVIGVIGDERKLNPDIFSTLEGVERIVPVA | 0.255 |
| HMKASTRELLDFVLSQRGVSTASVAKALGISVQNASTRLKKLSNEGLIIRSEASSLTGGIEFLYS | -0.799 |
| HMKDASEFLGAKGKTITPLRPTGAAVINGEKVDVLAEGEFIPKNAEIVVIKVEGSKIIVRNANN | 0.143 |
| HMKDDLTWSEGLMPNVVGMGLRDAMFMLENSGLRVNYSGRGKVTRQSPQPGVRIKRGATVAIELRL | -0.395 |
| HMKDEHYLYIKARVDNGDYPHLSELKSAEEIELVMPKLLQDGIVEFNKETGEYTIGEDVKAEIERL | 0.108 |
| HMKDESYALGTRLLSHALGKTKLEDLAQEKIDEVVQQSGNKTLEQLLTNIGLGNALSIGIARQLT | 0.383 |
| HMKDGAKYFQLFGLLKNEINRGIYQSGQKIPGENELAEKYGMSRQTVRQALSLLEQESLIERRQGSGTYVR | 0.108 |
| HMKDGMRVYITYHDSEEEPEKPIGDGTTKGWHTNSTASVVWISQKVAESADLGIWGDPIRIKGEA | -0.14 |
| HMKDIIVDPQGQYNHPGVPTRIPSSDITMKGVGYPVLGIADNGQKQMMQPGQDYKFPGAKYVDEYPQM | 0.137 |
| HMKDIIVLGAIQAGIKKFDKIQKMTQIEPEELNSILEQLENRGFIQVAEKSGLLGKKIEILVTEKGSNEVD | 0.442 |
| HMKDITAVISKKKGRDYYYIIVSYHLSNGKRVQKWIKTEFSVNGNNKRKLEQKRIEILQEWQNKLV | -0.642 |
| HMKDITMPNVYGLTLEMAEQTLKQSELSIFKAMKINSDTVEEGKVIYTDPKANSIVSGDQEITIYVSDGP | 0.0645 |

| Sequence | soluble fraction (log2) |
| --- | --- |
| HMKDKSEKTKKLIFEAAFKIIREEGFSELSANKIAQVASVSKGVIFHHFSQMDDLYLFMLDTL | 0.255 |
| HMKDLTAIKGVGEFFAKKLSQAGYQSITNLTDVNAKRLQADTGIPLPIAARIIKEAQSLIAET | 0.206 |
| HMKDMWNRIRRARLSAGLSQAALAKETGVRRSAVTQWEKEGGTSPSVANLARIAVVTQVHFEWLATGRGPG | -2.67 |
| HMKDNIRSILEDIPNIGPGRRRALLKHFGSIEAIRRASLEDLIKVDGMNRNAALSIMEYFGM | -0.159 |
| HMKDPSLEHIDALAGKPFQAFPGQDHRAHITAHLNFMSTNMVRNNPSIMAAIQKNILEHISLMAQEQIQL | -0.783 |
| HMKEETYHYTVRYVTDGGDILASYEGKATKDSVFFPEVKTFDGYTAVRGEEPMFHLVSDHAVFQIVYQKNG | -0.147 |
| HMKEFEINSQWKPSLEVYDILSVKGGISRNFIEDSIPEFVLYWRGRGDKSNTWDSKFVQHVKRQWNFYSGL | -3.32 |
| HMKEGGREEMSEIVERYGDERALMANITSVQNLMNNMKWTLDQALDALGIKGKERTLITQQLQ | -0.147 |
| HMKEIATKSELTYFIQRLLDLLEETNFFNPEERKKAMINHIEAIFRRNNLTLQELNMLHGIITSITR | -2.62 |
| HMKEIGGGPASKFIYYLIKTKHPIEQGDLIGITHLPRRTVQSAIEDLKNQGFIIERNSLDDSRRKVYYPVK | 0.000762 |
| HMKEIKRLVELSPGRYFIEGATNIRVFGINGSLLLDTKGETVDLSDLAKGVYLLKTDGVTYKVL | -0.543 |
| HMKEIYIDRGKEALEKELRKRKIPFQEFLSKENTNLLFDTLKIPSHDLEELYLEIGNGKHAASTVVNTVY | 0.136 |
| HMKEKQLMTLDDDLYAFLLKHPGIIQKDIYNHFPYDIKGVIADTLYAWDKTGKIKRTKSGNSYIIYT | -0.0536 |
| HMKELAADFSRRIINARTSKGWSQADLGQRMAETINVIKSAESGKPPTDAVVKKFETVLGVILM | -0.641 |
| HMKELLDRIFLHETMRRVSQDATITFSKKVYEVPQKFIGRQVTVQYDPEDLSRVYVKDLNFPEPVMVYPVQ | -0.843 |
| HMKELTPEQLQHNWNNLRQFIDVNFSGDRLGGLNKMYDYFEERMMFAPASGKQHYHNAFAGGYVEHVMHV | 0.335 |
| HMKEPGFAPPVRALAAAPITVLAQVAGTNPGEIRARLRAAGYPVASDQQSVQSLVGGDLKAQIGVLNRILA | -0.00802 |
| HMKEQIKVPDLSNKTPEEAKKELNTLGLGARKGGEESSDTVEEGLITRQEPAAGEQVDKNTQILFYVSTGK | 0.0624 |
| HMKEQLLLGFKVRSLRGIDLGFVKFIEGSAFQSFLKTDLTIIPNVPNYVKKIDNVKKIILVDWESD | -2.69 |
| HMKEQYTELDWDKVQVNDKVMIKDLNQQVTILSLPDKNNALYIQMGMIKTKVKKEKLAVYNPQLA | -0.185 |
| HMKERVSWDERLERFAKHITENESLPYPSSKEYAWFEENKALYDAGELEPVRAQSFAFLLKIMRRMNL | -0.491 |
| HMKETIIPELLQNELDKNSELNDKFNTFSPYKQREFIEYIITAKQEKTQISRLQKVILMILEGRGLNN | -0.204 |
| HMKEVELENMIKAKGFKDAAVLVDERSVTVIVESERLAAGDSASIKELVSRGTGVDPQNVVII | -0.107 |
| HMKEYPEVITTSRLNVRTGPGTGYQRLGTLDQNLRVLVLTRQQGWAQIRGMLNGETVIGWVNDYYLQAID | -0.319 |
| HMKFINISIDKSGNLFINKKSIKFQDLKYNVVNLVDESKNLVVLNADENISHGYVISVLDVLRSIDGLKLA | -2.18 |

| Sequence | soluble fraction (log2) |
| --- | --- |
| HMKFNEKQNEVRIAIMNFIIDNKRPFHMKQDGYDALEGITLSGRHEFQDILDVLHSRDGFSADEEGNINF | -1.51 |
| HMKFPIITAKQDSDGKFYWAQTTDKGKTYTFILDGDGKKFPIGGTMPDVKINENGYWSVNGSSTGVLANDL | 0.0311 |
| HMKFSVEEQFKKSFPKNTYETFSETSLKGVYEVYNGKQVYYYLPVNDVLLLGSIVTKDGKNLTQESNSKK | -0.0811 |
| HMKGIVFTEFLDLVEERFGLEMVDAIISQSKLESKGVYTSIGTYSFSELLQLLQNLKIQTGISIDNLLLI | -0.88 |
| HMKGKIYFFEEGVDRVGGVERVISTLANEFSKKYKVNVISFYKTRKETFFKYNSDIDITYLSK | 0.14 |
| HMKGLDRATNKALLLKHIIDNGSTGTRFSELRQVLPSLTRGSISSLLIELRSEGKIHSIGVTRNARWYPTE | -1.07 |
| HMKGLKERLLYFIEYKGLPVQMFEKIVGLSNAAVSKMGDNTRRSTIDKISKSFPELDVNWLLTGQGEMLSY | -0.255 |
| HMKGPAFAKIDLTQLPAGLTSFLNTNAAGFKLDYAVAITKDSVIIEYHVGVTIGTAKKEFHLDPNFQLLP | -0.36 |
| HMKGPLKDLGPDPVTGKSILVKDGKFGTYVTDGETNATLRRGDIVELLTLERGMELLAEKRARATQ | 0.151 |
| HMKGTVKFFNESKGFGFITEEGTNKEHFVHVSGLVDEIRENDEVEFDLQDGRKGLNAVNVRV | 0.231 |
| HMKGVENLSDIDIQKALNNARANLSKNKAKLEQAGDDEKKKASALAMIQKWETTKKAIEEEIEARKKKSLN | -0.296 |
| HMKHAIKEKIRNEYVHGYLNEEGYRVMPTLDELIRKYEVPASSTYRASSKEGWKKQKEAFLEHLRGEIDA | -0.139 |
| HMKHFFIIAGGKIEDAFAIEVLKGFAEKTVIAADSGMEFLRRNEIVPQVIIGDFDSVSKETLEWFQKK | -0.703 |
| HMKHKGILTTWNDDRGFGFITPKEGKEPVFVHISAFARGQGRPVLNASLTYRLVRDDQQRPRAEAVRL | -1.15 |
| HMKHKHHIIPKHKGGTDHPDNLIELTVEQHAKAHWVEFMLDGREEDYWAWKGLEGVASKKDIIYALSKR | 0.351 |
| HMKHSEAIELGKRMLSQALQDVSLVLKKIPEERLQAVAAELNLKTPDELFEKIGLGERLAALVARRLLP | -0.207 |
| HMKHTQTDEGELLSTLRTLFPNSSSSSLRKMLTQGRILVNQEVVHRAKHALQAGDEIEVLARQ | -0.122 |
| HMKHVDLDNNERYIYGIIGSTKIHVDEVVEKSGMETKHVMAILTNLELKEAIKGIPGGFYLR | -0.506 |
| HMKHVENLSDEKTIQAIQENPYMQYLLGLSKFTEKPVFVPELFVLIRKRLDQDFFNMLTLILAEADG | 0.143 |
| HMKHYIDFIAEQLKTLTAIPSPSGYTKNATDYLMKLLQDMGYEPKLSRKGNVFVTLGGDGEPLVLAAHVD | -0.114 |
| HMKIDELKAYLFQSVRVKNPHTQEYDTLKIIELNYYQDKIKAKLKNSDDDYITEMIFESIKHLQNFLG | -0.298 |
| HMKIEEIAYSTFISMLDKGEVSKVELKDNLIYIETKADDKTIYTTGRMEDPDLTNRLIEAGVDFTEIE | -0.317 |
| HMKIELSDNEKIIYDLLSSQHVLLSEIKDKAGLSNKAWDKSTKSLRKLGLIAVEKKDDDIYISKL | -0.0233 |
| HMKIGIYPGTFDPITHGHTDIIRRSLRVFDKVVVAVAPNPSKHPLFTLTERLEMIRIVMKELEHVEVT | 0.0231 |
| HMKILVTDDNIRIDKYLTTQTEYSRSTIQKMIESNNILVNNKPTKSNYILRNNDEITIDENFNEE | -0.11 |
